# Data taken from the DeepSol protein solubility set.
# Test: soluble on expression in E. coli; label from the status in PepcDB or PDB records
row,Sequence,soluble on expression in E. coli
1,MGSDKIHHHHHHMESIKQIYRMGHGPSSSHTMGPMRAAQMFLERNRGAVRFNVTLYGSLAATGKGHMTDAAILEVLQPVAKTNITWEPKTFLPFHPNGMLFESYNESGEELDTWTVYSIGGGTLANESFNELRTEQVYDMHTIKEIQAWCEKTGHSYWEYVEQHEGPSIWDYLAEVWEVMQDAVRRGLEAEGILPGGLGIRRKASDYMIRAKGYGSSIKSRGMVYAYALAVSEENACGGKIVTAPTCGSCGVMPAVLYHLKETREFRDSRILRALATAGLFGNVVRTNASVSGAEVGCQGEVGVACAMAAAAASQLFGGTPAQIEYAAEMGLEHHLGLTCDPVCGLVQIPCIERNAFAAARALDANTFSNFSDGKHRVSFDQVVEVMRQTGNDLPSLYKETSEGGLAKNMENSNN,not soluble
2,MPTPLTHWSRWMQTASRFVDEYPNFSVLPPPPLRAPPPHSKISDRRSV,not soluble
3,MAKWGQGDPRWIVAEREDGTNVNNWHWTARDATIWSKGKLRELLVGIAMENEAGRCEISELKQVEGEASCNSRKGKLIFFYEWNIKLAWKGTVKESGAKHKGLIEIPSLSEENEINDTEVNVSKKKGDGEILKDLMRTTGTAKVREALGEYLKALKTEFTTGMILPTKAVATQELTLQRKLNENKLQASPVALGVRIPTVALHLTELFDTTVEQLYSIFTVKELVQKFSKSPAVLEAERGGKFQMFDGNISGEYVELVTNRKIIMKWRCRNWPEALGFFPRTLCNS,not soluble
4,MSLVTIKDVALKAGVSPSTVSRVIKGNKRISEATISKVKKVMEELNYFPNTAARTLITNQTYKIGLVLKGSEEPIRLNPFYINVLLGISETCNQHGYGTQTTVSNNMNDLMDEVYKMIKQRMVDAFILLYSKENDPIKQMLIDESMPFIVIGKPTSDIDHQFTHIDNDNILASENLTRHVIEQGVDELIFITEKGNFEVSKDRIQGFETVASQFNLDYQIIETSNEREVILNYMQNLHTRLKDPNIKQAIISLDAMLHLAILSVLYELNIEIPKDVMTATFNDSYLTEIASPPQTCIDIKPRMLGQQAGSAILNILKNKAQDVIELVIIDTELKIRKSTQREGHHHHHH,soluble
5,MDIYERQVRVEAPLAEVWKFHATGDGLVALTPDWMNIRIEAERGPDGEPNPDELTAGSVVESSIKPFGVPPRQQWVSNIVAREEGEDEAMFRDVMEEGPFPHWEHTHTFRALSDRETLVHDHVEFELPGGPLGRALGPFGCLGMEPMFRYRHQQTKKLLEGLEHHHHHH,not soluble
6,MGHHHHHHSHRSSDCPYIVQFYGALFREGDCWICMELMSTSFDKFYKYVYSVLDDVIPEEILGKITLATVKALNHLKENLKIIHRDIKPSNILLDRSGNIKLCDFGISGQLVDSIAKTRDAGCRPYMAPERIDPSASRQGYDVRSDVWSLGITLYELATGRFPYPKWNSVFDQLTQVVKGDPPQLS,not soluble
7,MTESEIHERFVDTYMHILKYVGDFVSVPTRPYKITFEAYTVMRMIATSEEPLTLVKIAKEQRVSRSAIARQINVLLDLKYIEQTTNTHDRRIKYLSLTPAGHKVEQEITTASEERFHQWVQVYGEKRASDTLRYINDAEQKATELGFSGFSGLHDKRGRHTEYSDPKTKN,not soluble
8,MSLAFNYDEYLRVDKMPTQWCWGCGDGVVLKCIIRAIEKLGWNMDDVCLVSGIGCSGRMSSYVNCNTVHTTHGRAIAYATGIKLANPSKHVIVVSGDGDTLAIGGNHTIHGCRRNIDLTHIVINNFIYGLTNSQTSPTTPKGFYTVTAQFGNIDPNFDACELTKAAGASFVARGNVIEANKLENLIYKALAHKGYSFVDVFSNCHINLGRKNKMGEAVAMLDWIKNRVVDKAKFESMDFEERKDKFPTGILHEDNSQPEYCHAYEEVRRAAKEKRMVDLGALKEGHHHHHH,not soluble
9,MNNTDPTSFESILAGVAKLRKEKSGADTTGSQSLEIDASKLQQQEPQTSRRINSNQVINAFNQQKPEEWTDSKATDDYNRKRPFRSTRPGKTVLVNTTQKENPLLNHLKSTNWRYVSSTGINMIYYDYLVRGRSVLFLTLTYHKLYVDYISRRMQPLSRNENNILIFIVDDNNSEDTLNDITKLCMFNGFTLLLAFNFEQAAKYIEYLNL,soluble
10,SNAAEHVRLATTTSTYHSGLLDYLLPQFEKDTGYKVDVIAAGTGKALKMGENGDVDLVMTHAPKAEGTFVEKGYGVLPRKLMYNDFVIVGPKADPAKIKDDESVLDVFKEIANKNATFISRGDDSGTHKKEMGFWAQTKIEPNFGGYRSVGQGMGPTLNMASEMQGYTMSDRGTWLAYQNKLDLEILFQGDEKLFNPYQVILVNPERYPTINYQGAKAFSDWLVNPRGQELINGFRL,soluble
11,MGSDKIHHHHHHENLYFQGMNTIDIAKSYITAIQTGDHATLGSIISPDVIWHQPGNHQFSGTHRGMAVVGPMLGKMMEVSNGTFAISRADDYMASGDWVAITLEFSGQANGVTLKQAGVDLLRIEDGKIVEVRLFSADQTQEDAFWGR,soluble
12,MSLNPVNGAILSIEISHPNGFEIDENISAYHDAEYYMDRIFDSGNYDSLIVLTSIKILSQHWEIDNDMVVTSQSIRQLAIDTINSKAESGTIKNYWFKLQSLCEEFKNLSQETLSLSVFDNQVLTLNVNGHGIFRKSAFFESFANQKLNSADGKLMLIFNKFETFISRKSYHKLHEELLQLRKISANEITNLFTKHIEGKISTNEIQTILKDLEQIPGIVEIVKSLIGSSGFELIVDANSISSKELGAFHKISTVMIFKNIMETHKTLLLDLVVLFLTCETNDQIVEFVNQIRATLVQYDVMEVVFTTCLNKGEVETKNMGQVQNSIFWSSVVATHSQLKRLIESLQLNDGYEYFYNNVLPDDYLVDVVIELINNKEYFFLQKKFLTKLNQENKVEKLLVGLIYLFNNDVKSFYKIFNDYSNFQNFTENKIKNLNQDVNLQKFIEALLSNPSKSQYFHGLSKLVQSQIKTNDNKSQQEEHCFIEIASDFETLAIENEGHHHHHH,soluble
13,MAKAPDIVDLLTLAVDRNASDLVITVGLPPMIKIDGEFHPTEHEALTPQDTRRLMYALMDEKQQRHFEEEKELDFSFSLPAKGRYRVNVFLQRGSVGGVLRVVPTVVKSFEELGLPKNIGELALTPRGLLLITGPTGSGKSTTLASMIDYINERRRAHIVTIEDPIEFFHRHKTSIINQREIGSDTHGFHKALRSVLRQAPDVILVGEMRDYETISAAITAAETGHLVMGTLHTNSAPETIDRIIDVFPEAQQEQVRVQLANNLVAVMTQQLLPKAFGGGRVLAYELMIATSAVRALIREGKSHQLVSVIQTGGQYNMITMDACLADLYKRKLITYEMGQSRAVDPKEFARLAGAAAPAASTNTGAQRRA,soluble
14,MSLIARDAHEGQFRSSGEPYITHPVAVASIIAQLHLDHEAVMAALLHDVIEDTPYTEEQLKEEFGASVAEIVDGVSKLDKLKFRTRQEAQVENFRKMILAMTRDIRVVLIKLADRTHNMRTLGSLRPDKRRRIAKETLEIYCPLAHRLGIEHIKNELEDLSFQAMHPHRYEVLKKLVDVARSNRQDLIERISQEIKVRLENSGIFARVWGREKHLYKIYQKMRIKDQEFHSIMDIYAFRVIVKNVDDCYRVLGQMHNLYKPRPGRVKDYIAVPKANGYQSLQTSMIGPKGVPVEVHIHTEDMEQVAEMGITAHWVYKENGKNDSTTAQIRVQRWLQSLVEIQQSVGNSFEFIENVKSEFFPKEIYVFTPKGRIVELPMGATAVDFAYAVHSDVGNTCVGVTVEHKPYPLSKALESGQTVNIITDPNAHPEVAWLNFVVTARAKTRIRHYLKQRCEEDAVKLGEVELNVALQPHNLGDFSIQQIRTVLDALALSSLDELLREIGLGNQSASMIAHQFVGVPLESANTKNLEFESKILTIAPMQVGKTQFAQCCHPILGDPIVGCCTEKNTVVVHHQHCASLKNACRQSLAKWDNVQSAVNFEAELQIEILNEQNALLSLMTAISASESSLQNIWTEELENNLLLVILQVCVKDIKHLANIVHRIKGITGVVNVKRNINELEGHHHHHH,not soluble
15,MGSDKIHHHHHHMNKTVDMTVNTIYLVGGGKGGVGKSVVALALVDHLQRRGVNTVLVENDTSNPDVMRAVHEEIACASFDLDTAGGWIDMVNYCDGHRDAVVVVSTAARNQDGVTRYGATLGSTLDELGRRLVVFWVINRQRDSLELLRQFSETFPDATVHVVRNGYYGAPERFVLYQDSKLRKSIEAKGRSLDFPELADRVADDLRSHRLSVRKAVETLPIGQRAELLRWRACYDAMFSQVTDDA,not soluble
16,MSRTIWLVRHGQRVDNVDKKWKANNDAKWDDPELTLRGKQQAHEVGKHFANMNIEAIVVSPFTRCIETAAQIVAMMENKAKICVEPGLMEPLYLCKNPPTIPSMDKIKEYSTQVDESYKPVFEKLPISEISLLFSEISLLFPMVLHWQTSTLS,not soluble
17,MAHHHHHHMRFVFRRLLPASTAAVAAPPSLLSMRGAPSFVHPPAEEAIGKDVRATPANWVTAYVLPEVITEQEEKTLLDFSEPWFERLSYNDGHMDGLIHHYKEFYRSYAAITQAAETGSDAGLNMPHANLEVDLPLVSEALARAHDLAQTYLPCIPIDDRVHFLRLAGSGFIRAHVDESRNSTGIVAGLCLNAGRVMTLTHPAYPGERVELMLAPRCLYILIGRARYDWAHSVDWVGDDDEHIRRIQKSLAVEGTPIRFDGAETPYRRSDRTAIIFRGVSPMTLLVRRMRQRG,not soluble
18,MTAPTLAPIDPPARAQLLTDLQGAPDWDVIVIGGGATGLGTAVDAAARGYRTLLVEAADFAKGTSSKATKLVHGGVRYLAQGNISLVREALHERGLLNRNAPHLVWPLGFVVPAYSLLDQPFYGVGLKMYDMLAGKLNLAPSRWLSRGETLRHAATVAERVNGRALRGGILYYDGQFDDARLAIALMRTLYDLGGVALNYARAVGLTRTDGRVDGVTVADALGELRVTLRAKCVVNATGVWVDAVRRMDDPAAQTMVAPSQGVHLTLPRDFLPGEDAILIPKTDDGRVLFVVPWNGHTIVGTTDTPRTDLPLDPQAGQNEIDFILATAARYLSRKPTRADVTSVWAGLRPLVKATGEASTKSLSREHTIVVSKGGLVTVTGGKWTTYRKMAQDVVDTAIEHKLLAAAPCRTSELPLHGAPADGQPNGAPHGTPDSYYGTDLATLRALPGADRMLVKASALTEAHVRYAARHELARTVEDVLARRNRALFLDAEAALLAAPEVARILAQELGHDEAWSRATLAEFEAVAAHYRLALEHHHHHH,not soluble
19,MGSSTGFHHADHVNYSSNLNKEEILEQLLLSYEGLSDGQVNWVCNLSNASSLIWHAYKSLAVDINWAGFYVTQASEENTLILGPFQGKVACQMIQFGKGVCGTAASTKETQIVPDVNKYPGHIACDGETKSEIVVPIISNDGKTLGVIDIDCLDYEGFDHVDKEFLEKLAKLINKSCVFK,soluble
20,MGSDKIHHHHHHMSFKSSIAKMAGKSSYWFLHTFRSGGSSLPGKITTKIDPTILKDLGKDYDVIVITGTNGKTLTTALTVKVLRQKFDHVLTNPTGSNMEQGIVTTFLTDHKSKNGKNIAILEVDEANVIKVTQYIKPLAFVFTNIFRDQMDRYGEIYTTYRKILDGVKLAPEATIIANGDMPIFNSVDLPNPVVYYGFNNQPDGEMKADPNTDGVVCPRCEHIIHYKFISYSNQGKYYCPNCGWERPELTYQLTQITKLTPNLSKFFIDASNFTLHIGGLYNVYNALAAYSVGKFMGVPTSSIQKALNDPDERVFGRQEQINVDGKEITIVLVKNPVGLNQVIDMVGTESEPFSFVGLLNANYADGIDTSWIWDGNFEKLTQMPIQQYMTGGERYKDITFRLKVAGIEDNQLWTYDNLKDAVSNIKNLPTKRVYVFATYTAMLQLRKQLATEGYIKEGI,not soluble
